Laboratory results from patent EP4669671A1 (dated 2025).

Key:
[1] = molecular target: T1, human IL2RA expressed on CHO-S cells (CHO-S-hIL2RA cells) (human, UniProt P01589 22-272); experiment: flow cytometry on CHO-S-hIL2RA cells
T1 sequence: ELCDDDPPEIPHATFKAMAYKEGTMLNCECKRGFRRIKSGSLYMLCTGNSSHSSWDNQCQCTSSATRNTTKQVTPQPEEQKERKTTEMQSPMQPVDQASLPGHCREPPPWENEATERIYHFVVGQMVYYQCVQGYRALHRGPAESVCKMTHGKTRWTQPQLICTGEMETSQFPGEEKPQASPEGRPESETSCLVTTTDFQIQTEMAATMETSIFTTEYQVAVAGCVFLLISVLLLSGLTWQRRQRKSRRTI

[2] = molecular target: T2, monkey (Macaca fascicularis) IL2RA expressed on CHO-S cells (CHO-S-fasIL2RA cells) (monkey (Macaca fascicularis), UniProt Q5MNY4 22-272); experiment: flow cytometry on CHO-S-fasIL2RA cells
T2 construct: also called monkey IL2RA
T2 chain: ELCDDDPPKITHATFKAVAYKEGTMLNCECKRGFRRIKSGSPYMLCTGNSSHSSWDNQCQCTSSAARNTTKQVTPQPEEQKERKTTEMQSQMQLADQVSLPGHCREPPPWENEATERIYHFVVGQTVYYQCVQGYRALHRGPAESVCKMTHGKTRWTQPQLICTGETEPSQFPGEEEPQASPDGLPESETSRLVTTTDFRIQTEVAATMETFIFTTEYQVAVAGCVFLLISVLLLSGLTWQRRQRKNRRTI

[3] = molecular target: T3, His-tagged human IL2RA protein (ACROBiosystems Inc., Cat#: ILA-H52H9) (human, UniProt P01589 22-213, limits assumed); experiment: SPR (Biacore 8K), antibody captured on Protein A chip, His-tagged IL2RA as analyte
T3 construct: Bought protein; also called hIL2RA-his; not shown: His tag
T3 sequence: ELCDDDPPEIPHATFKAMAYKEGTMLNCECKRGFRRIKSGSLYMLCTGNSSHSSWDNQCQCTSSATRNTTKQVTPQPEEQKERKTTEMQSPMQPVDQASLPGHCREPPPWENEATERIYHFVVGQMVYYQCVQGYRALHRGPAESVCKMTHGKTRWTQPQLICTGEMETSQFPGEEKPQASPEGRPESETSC

Measured: binding result

B1: anti-IL2RA antibody 14C2 (antibody, V domains shown)
VH: QVQLVQSGGGVVQPGRSLRLSCAASGFTFSTYGMHWVRQAPGKGLEWVAVISYDGSDKIYADSVKGRFTISRDNSKNTLFLQMNSLRAEDTAVYYCATGPMENYYYYNMDVWGLGTTVTVSS
VL: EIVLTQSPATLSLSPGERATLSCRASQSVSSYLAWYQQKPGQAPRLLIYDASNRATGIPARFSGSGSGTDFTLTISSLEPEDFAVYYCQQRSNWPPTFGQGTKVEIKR
binds: [1] | [2] | [3]

B2: anti-IL2RA antibody 11C12 (antibody, V domains shown)
VH: QVQLVQSGGGLVQPGGSLRLSCSASGLTFSSYGMHWVRQAPGKGLDYVSGITNNGGRTEYADSVKGRFTISRDNSKNTLYLQMSSLRTEDTAVYYCVKEDWNGQYYYYAMDVWGQGTTVTVSS
VL: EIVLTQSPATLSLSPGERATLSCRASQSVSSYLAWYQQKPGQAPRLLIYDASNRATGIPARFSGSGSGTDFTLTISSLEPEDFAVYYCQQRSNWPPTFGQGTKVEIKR
binds: [1] | [2] | [3]

B3: anti-IL2RA antibody 11C3 (antibody, V domains shown)
VH: QVQLVQSGAEVKKPGASVKVSCKASGYTFNSYYIHWVRQAPGQGLEWLGIINPTGGRTIYAQKFQGRVTMTRDTSTTTVDMELSSLRSEDTAVYYCARVPGYCKDTSCQDFYYYYGMDVWGQGSTVTVSS
VL: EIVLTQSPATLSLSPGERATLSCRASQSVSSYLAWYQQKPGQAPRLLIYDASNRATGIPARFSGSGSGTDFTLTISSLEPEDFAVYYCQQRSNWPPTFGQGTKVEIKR
binds: [1] | [2] | [3]

B4: anti-IL2RA antibody 11D2 (antibody, V domains shown)
VH: QVQLVQSGGGVVQPGRSLRLSCAASGFTFTNYAIHWVRQAPGKGLEWVAVIWSDGDNKYYADSVKGRFTISRDNSKNTLYLQMNSLRAEDTAVYYCARTPWYCTSTNCYTGYYYYGMDVWGQGTTVTVSS
VL: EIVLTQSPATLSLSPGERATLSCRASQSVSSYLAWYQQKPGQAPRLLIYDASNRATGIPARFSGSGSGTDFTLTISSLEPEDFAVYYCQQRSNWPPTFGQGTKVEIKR
binds: [1] | [2] | [3]

B5: anti-IL2RA antibody 5D9 (antibody, V domains shown)
VH: EVQLVESGGGLVQPGGSLRLSCAASGFTVSSNYMSWVRQTPGKGLELVSFIYSGGITSYADSVRGRFTISRDNSKNTLYLQMNSLRAEDTAVYYCARDDYSNYFDYWGQGTLVTVSS
VL: DIQMTQSPSSVSASVGDRVTITCRASQGISNWLAWYQQKPGKAPKLLIFAASSLQSGVPSRFSGSGSGTDFTLTISSLQPEDFATYYCQQAKSFPITFGQGTRLEIK
notes: Variable regions were cloned into a vector with the human IgG constant region; also called 5D9-IgG1
binds: [1] | [2] | [3]

B6: anti-IL2RA antibody 7B5 (antibody, V domains shown)
VH: EVQLQQWGAGLLKPSETLSLTCAVYGGSFSGYYWNWIRQPPGKGLEWIGESDHSGSTHFNPSLKSRVTISLDTSKNQFSLKLNSVTAADTAVYFCARAPDYGDFDHWGQGILVTVSS
VL: DIQMTQSPDSLAVSLGERATINCRSSQSVLHSSTNKRYLAWYQQKPRQPPKLLIYWTSTRESGVPDRFSGSGSGTDFTLTISSLQAEDVAVYFCQQYYSTPYTFGQGTKLEIK
binds: [1] | [2] | [3]

B7: anti-IL2RA antibody 13F9 (antibody, V domains shown)
VH: QVQLVQSGAEVKRPGASVKVSCKASGYTFTTYAIHWVRQAPGQRLEWMGWINADNGYTKYSQNFQGRVTITRDTSASTAYMDLSTLRSEDTALYYCARTPRYCTSTSCSTGYYYYGMDVWGQGTTVTVSS
VL: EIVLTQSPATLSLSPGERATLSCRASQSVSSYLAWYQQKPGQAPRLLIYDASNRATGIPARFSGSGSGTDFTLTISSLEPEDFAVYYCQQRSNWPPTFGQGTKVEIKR
binds: [1] | [2] | [3]
